Source: US20240158515A1, “ANTI-FGFR3 ANTIBODIES AND ANTIGEN-BINDING FRAGMENTS AND METHODS OF USE THEREOF” (Regeneron Pharmaceuticals, Inc., priority 2022, published 2024)

How the values were obtained:
[1] = system: BaF3 cells expressing FGFR3 S249C; assay: BaF3 proliferation assay, FGFR3 S249C (TKI resistance study); type: cell-based, murine; settings: 72 h, CellTiter-Glo, FIG. 12A left; read-out: IC50, growth of BaF3 cells expressing FGFR3 S249C
Experimental: (§1) IL-3 dependent murine pro B cell line BaF3 cells were engineered to stably express full length human FGFR3b S249C, V557L, V557M, S249C/V557L, S249C/V557M (accession number for WT FGFR3b NP_001156685.1, amino acids M1-T808). Cells were maintained in RPMI 1640+10% FBS+P/S/G+1 ng/ml mouse IL-3+500 ug/ml Neomycin; 37° C. 5% CO2. For proliferation assays, cells were washed with IL-3-free culture media and plated at 10^5 cells/well into 96-well black wall tissue culture plates. Cells were treated with 1:3 serially diluted antibody as indicated in the presence or absence of 5 μg/ml heparin and 1 nM human FGF1. After addition of antibodies, cells were incubated at 37° C./5% CO2 for 72 h followed by the addition of an equal volume of CellTiter-Glo™ (Promega) reagent to lyse cells and detect luciferase activity. Luminescence signal was quantitated with Envision plate reader (PerkinElmer). EC50 values of the antibodies were determined using GraphPad Prism software.

[2] = system: CD73 protein level in UMUC14 cells; assay: CD73 expression in UMUC14 cells in vitro, Western blot; type: cell-based; settings: 1 nM, 10 nM, 100 nM, 48 hrs, FIG. 6
Experimental: To investigate the effect of anti-FGFR3 antibody or tyrosine kinase inhibitor (AZD4547; commercially available) on CD73 expression, UMUC14 bladder cancer cells were seeded in 6 well tissue culture plate (Corning) in complete medium (MEM medium with 10% FBS, 1% Non-Essential Amino Acids, Pen/Strep) and cultured overnight at 37° C. 5% CO2. Cells were then treated with antibodies or inhibitors at indicated concentration (100 nM, 10 nM or 1 nM) for 48 hrs. Cells were washed with pre-chilled PBS and collected in lysis buffer containing protease and phosphatase inhibitors. Equal amount of cell lysates were analyzed by SDS-PAGE. Blots were blocked in 0.5% Tween 20 in Tris buffered saline (TBS) containing 5% non-fat dry milk followed by overnight incubation with anti-CD73 primary antibody (Cell Signaling Technology). After washing 3× with TBST and incubation with secondary antibody, membranes were developed with SuperSignal West Pico or Femto substrate and luminescence images were captured with a C300 imager (Azure Biosystems).

[3] = system: BaF3 cells expressing FGFR3 S249C/V557L; assay: BaF3 proliferation assay, FGFR3 S249C/V557L; type: cell-based, murine; settings: FIG. 12A right
Experimental: as §1

[4] = system: CD73 protein level in Fadu S249C tumors; assay: CD73 expression in Fadu S249C tumors in vivo, Western blot; set-up: species or system SCID mice; settings: FGFR3 mAb 15 mg/kg one intraperitoneal dose; AZD4547 25 mg/kg daily gavage; FIG. 11A-11B
Experimental: To test the effect of anti-FGFR3 inhibitory antibody or tyrosine kinase inhibitor (AZD4547) on CD73 expression in vivo, tumor cells (5×10^6 UMUC14, 3×10^6 Fadu EV or S249C, in 50% Matrigel) were implanted subcutaneously into the right flank of 6 to 8-week-old female SCID mice (Jackson Laboratory). Once tumors were established (˜200 mm^3 in volume), mice were randomized into treatment groups (n=5-6 mice per group) and injected intraperitoneally once with anti-FGFR3 antibodies (15 mg/kg) or isotype control. Tyrosine kinase inhibitor AZD4547 (25 mg/kg) was administered once daily by oral gavage for 3 days. Tumors were collected 4 days post treatment initiation. Tumors were collected, snap frozen and lysed in RIPA buffer. Equal amount of tumor lysates were analyzed by SDS-PAGE and blotted with anti-CD73 and anti-FGFR3 antibodies as described above. Membranes were developed with SuperSignal West Pico or Femto substrate and luminescence images were captured with a C300 imager (Azure Biosystems). Intensity of each CD73 and actin band was quantitated using Image J (NIH), and the ratio of CD73/actin for each sample were graphed using Prism Graphpad.

[5] = system: BaF3 cells expressing FGFR3 S249C/V557M; assay: BaF3 proliferation assay, FGFR3 S249C/V557M; type: cell-based, murine; settings: FIG. 12B
Experimental: as §1

[6] = target: T1, human FGFR3b (hFGFR3b.mmH, REGN3152) (Homo sapiens, UniProt P22607); assay: Biacore SPR binding kinetics, monomeric human FGFR3b to captured antibodies; settings: 25° C.
T1 construct: REGN3152 (human FGFR3b expressed with a C-terminal myc-myc-hexahistidine tag)
T1 sequence (P22607 with tags, fused parts or gaps isoform P22607-2): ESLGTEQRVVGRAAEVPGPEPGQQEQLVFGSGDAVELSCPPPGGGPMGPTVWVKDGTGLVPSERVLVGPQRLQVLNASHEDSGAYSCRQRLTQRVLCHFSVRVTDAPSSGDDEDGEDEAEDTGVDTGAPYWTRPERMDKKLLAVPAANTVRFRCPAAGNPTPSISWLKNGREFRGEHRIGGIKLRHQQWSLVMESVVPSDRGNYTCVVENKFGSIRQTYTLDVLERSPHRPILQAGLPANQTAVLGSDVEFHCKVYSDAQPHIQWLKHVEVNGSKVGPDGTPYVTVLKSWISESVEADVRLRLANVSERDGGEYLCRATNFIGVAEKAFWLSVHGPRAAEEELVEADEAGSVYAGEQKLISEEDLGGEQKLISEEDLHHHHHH
Experimental: (§2) Biacore binding kinetics of anti-FGFR3 antibodies, in an antibody capture format, to monomeric human FGFR3b, cynomolgus FGFR3b, murine FGFR3b, human FGFR3c, and dimeric human FGFR3b ecto domain recombinant proteins at 25° C. were analyzed.
(§3) Equilibrium dissociation constants (KD values) for human FGFR3b expressed with a C-terminal myc-myc-hexahistidine tag (hFGFR3b.mmH, REGN3152) or cynomolgus FGFR3b expressed with a C-terminal myc-myc-hexahistidine tag (mfFGFR3b.mmH, REGN3521), or murine FGFR3b expressed with a C-terminal myc-myc-hexahistidine tag (mFGFR3b.mmH, REGN3215) or human FGFR3c expressed with a C-terminal myc-myc-hexahistidine tag (hFGFR3c.mmH, REGN3155) or human FGFR3b expressed with an C-terminal murine Fc tag (hFGFR3b.mFc, REGN3153) binding to purified anti-FGFR3 antibodies were determined using a real-time surface plasmon resonance biosensor technology using a Biacore 3000 or Biacore 4000 instrument. […] Antibody-reagent association was monitored for 5 minutes while dissociation in HBS-EP running buffer was monitored for 10 minutes. […]
(§4) The specific SPR-Biacore sensorgrams were obtained by a double referencing procedure. […] Kinetic association (ka) and dissociation (kd) rate constants were determined by fitting the real-time sensorgrams to a 1:1 binding model using Scrubber v2.0c curve fitting software. […]

[7] = target: T2, hFGFR3c-hFc binding to hFGF acidic protein (Homo sapiens, UniProt P22607); assay: ELISA blocking of hFGFR3c-hFc binding to hFGF acidic
T2 construct: hFGFR3c extracellular domain (amino acids Glu23-Gly375); purchased R&D Systems 766-FR-050
T2 sequence (P22607 23-375): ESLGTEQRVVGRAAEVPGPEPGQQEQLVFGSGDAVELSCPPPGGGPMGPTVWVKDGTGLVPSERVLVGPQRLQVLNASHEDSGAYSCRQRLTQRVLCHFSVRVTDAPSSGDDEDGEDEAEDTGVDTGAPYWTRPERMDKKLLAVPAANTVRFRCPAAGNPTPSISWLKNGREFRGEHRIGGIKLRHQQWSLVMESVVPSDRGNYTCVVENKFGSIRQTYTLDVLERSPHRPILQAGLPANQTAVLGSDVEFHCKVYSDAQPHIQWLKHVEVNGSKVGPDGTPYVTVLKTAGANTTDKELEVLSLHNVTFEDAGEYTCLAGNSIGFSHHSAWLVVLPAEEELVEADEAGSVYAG
From the text: (§5) An ELISA-based blocking assay was developed to determine the ability of anti-FGFR3 antibodies to block the binding of human fibroblast growth factor receptor 3 isoform b (hFGFR3b) or human fibroblast growth factor receptor 3 isoform c (hFGFR3c) to human fibroblast growth factor acidic (hFGF acidic) or basic (hFGF basic) ligands.
(§6) The human FGFR3b recombinant protein used in the experiments had the hFGFR3b extracellular domain (amino acids E23-G377) expressed with the Fc portion of the mouse IgG2a at the C-terminus (amino acids E98-K330) (hFGFR3b-mFc, accession #NM_001163213.1). The hFGFR3c and hFGF acidic proteins were purchased commercially. […]
(§7) In the blocking assay, a 96-well microtiter plate was coated with either hFGF acidic or hFGF basic proteins at […] in PBS+10 mg/ml heparin overnight at 4° C. […] After a 1 hour incubation at room temperature, plates were washed, and plate-bound hFGFR3b-mFc or hFGFR3c-hFc proteins were detected with horseradish peroxidase (HRP) conjugated goat anti-mouse or goat anti-human Fcγ fragment specific antibodies. The plates were then developed using TMB substrate solution (BD Biosciences) according to the manufacturer's recommended procedure and absorbance at 450 nm was measured on a Victor X5 plate reader.
(§8) Binding data were analyzed using a sigmoidal (four-parameter logistic) dose-response model using GraphPad Prism software. […]

[8] = target: T3, hFGFR3c-hFc binding to hFGF basic protein (Homo sapiens, UniProt P22607); assay: ELISA blocking of hFGFR3c-hFc binding to hFGF basic
T3 construct: hFGFR3c extracellular domain (amino acids Glu23-Gly375); purchased R&D Systems 766-FR-050
T3 sequence (P22607 23-375): T2 sequence (P22607 23-375)
From the text: as §5, §6, §7, §8

[9] = target: T4, human FGFR3c (hFGFR3c.mmH, REGN3155) (Homo sapiens, UniProt P22607); assay: Biacore SPR binding kinetics, monomeric human FGFR3c to captured antibodies; settings: 25° C.
T4 construct: REGN3155 (human FGFR3c expressed with a C-terminal myc-myc-hexahistidine tag)
T4 sequence (P22607 with tags, fused parts or gaps): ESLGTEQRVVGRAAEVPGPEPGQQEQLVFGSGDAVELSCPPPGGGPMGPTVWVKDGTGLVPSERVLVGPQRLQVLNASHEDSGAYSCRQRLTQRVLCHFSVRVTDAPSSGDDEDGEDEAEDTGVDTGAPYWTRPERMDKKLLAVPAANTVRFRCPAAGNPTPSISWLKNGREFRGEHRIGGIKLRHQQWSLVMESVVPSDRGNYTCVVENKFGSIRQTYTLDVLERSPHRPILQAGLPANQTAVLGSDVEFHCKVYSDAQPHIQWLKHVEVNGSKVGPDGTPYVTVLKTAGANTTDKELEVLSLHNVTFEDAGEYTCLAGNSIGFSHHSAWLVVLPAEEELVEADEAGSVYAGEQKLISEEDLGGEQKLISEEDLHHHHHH
Experimental: as §2, §3, §4

Row | Substance | IC50 [1] [nM] | CD73 expression in UMUC14 cells in vitro (in words) [2] | growth inhibition of BaF3 cells expressing FGFR3 S249C+V557L (in words) [3] | CD73 expression in Fadu S249C tumors in vivo (in words) [4] | growth inhibition of BaF3 cells expressing FGFR3 S249C+V557M (in words) [5] | ka [6] [M⁻¹ s⁻¹] | kd [6] [s⁻¹] | Antibody blocking 0.4 nM hFGFR3c-hFc binding to hFGF acidic protein, % Blocking at 200 nM mAb [7] [%] | Antibody blocking 7 nM hFGFR3c-hFc binding to hFGF basic protein, % Blocking at 200 nM mAb [8] [%] | ka [9] [M⁻¹ s⁻¹] | kd [9] [s⁻¹]
1 | AZD4547 [reference compound] | 9.9 | dose dependent downregulation of CD73 expression | ineffective | decreased expression of CD73 relative to mice treated with control | ineffective |  |  |  |  |  | 
2 | REGN6331: comparator; relates to FGFR3b mAb, hIgG1 (mAb 184.6.1 N54S, Genentech); HC SEQ ID NO: 244, LC SEQ ID NO: 243 [reference compound] |  |  |  |  |  | 883000 | 0.000616 | 86 | 87 | 544000 | 0.00132
